# Measured values published in patent publication US20240016931A1 (JIANGSU HENGRUI PHARMACEUTICALS, published 2024).
# Target: T1, His-tagged human TSLP antigen (huTSLP-his) (human)
# T1 construct: Secreted from HEK293E and purified on nickel; whole entry named; also called Human TSLP-his
# Test: ELISA, coated huTSLP-his;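 note: binding of antibodies to plate-bound TSLP read as absorbance at 450 nm after TMB colour development, EC50 derived from binding curves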
row,Binder,EC50 [nM]
1,"hu179-09 (antibody, human IgG1, kappa, IgG1-YTE, kappa) heavy: EVQLVQSGAEVKKPGSSVKVSCKASGYTFSNYLIEWVRQAPGQGLEWIGVIDPGNGDTNYNENFKGRATLTADKSTSTAYIELSSLRSEDTAVYYCAREDNTGTAFDYWGQGTTVTVSSASTKGPSVFPLAPSSKSTSGGTAALGCLVKDYFPEPVTVSWNSGALTSGVHTFPAVLQSSGLYSLSSVVTVPSSSLGTQTYICNVNHKPSNTKVDKKVEPKSCDKTHTCPPCPAPELLGGPSVFLFPPKPKDTLYITREPEVTCVVVDVSHEDPEVKFNWYVDGVEVHNAKTKPREEQYNSTYRVVSVLTVLHQDWLNGKEYKCKVSNKALPAPIEKTISKAKGQPREPQVYTLPPSRDELTKNQVSLTCLVKGFYPSDIAVEWESNGQPENNYKTTPPVLDSDGSFFLYSKLTVDKSRWQQGNVFSCSVMHEALHNHYTQKSLSLSPGK light: SIVMTQTPLSLSVTPGQPASISCKASQSVSSDVTWYLQKPGQSPQLLIYYVSNHYTGVPDRFSGSGSGTDFTLKISRVEAEDVGVYYCQQHHRFPLTFGQGTKLEIKRTVAAPSVFIFPPSDEQLKSGTASVVCLLNNFYPREAKVQWKVDNALQSGNSQESVTEQDSKDSTYSLSSTLTLSKADYEKHKVYACEVTHQGLSSPVTKSFNRGEC",0.157
2,"hu3-06 (antibody, human IgG1, kappa, V domains shown, IgG1-YTE, kappa) VH: EVQLVQSGAEVKKPGASVKVSCKASGYTFTDDYMNWVRQAPGQRLEWMGIISPYNGGTSYNQKFKGRVTLTVDKSASTAYMELSSLRSEDTAVYYCAREDYDYDGYAMDHWGQGTTVTVSS VL: EIVLTQSPATLSLSPGERATLSCRASSSVSYMHWYQQKPGQAPRPWIYATSNLASGVPARFSGSGSGTDYTLTISRLEPEDFAVYYCQQWSSNRTFGGGTKVEIKR",0.594
3,"hu3-02 (antibody, human IgG1, kappa, V domains shown, IgG1-YTE, kappa) VH: EVQLVQSGAEVKKPGASVKVSCKASGYTFTDDYMNWVRQAPGQRLEWMGIISPYNGGTSYNQKFKGRVTITRDTSASTAYMELSSLRSEDTAVYYCAREDYDYDGYAMDHWGQGTTVTVSS VL: EIVLTQSPATLSLSPGERATLSCRASSSVSYMHWYQQKPGQAPRPWIYATSNLASGVPARFSGSGSGTDYTLTISRLEPEDFAVYYCQQWSSNRTFGGGTKVEIKR",0.628
4,"hu3-03 (antibody, human IgG1, kappa, V domains shown, IgG1-YTE, kappa) VH: EVQLVQSGAEVKKPGASVKVSCKASGYTFTDDYMNWVRQAPGQRLEWMGIISPYNGGTSYNQKFKGRVTITRDTSASTAYMELSSLRSEDTAVYYCAREDYDYDGYAMDHWGQGTTVTVSS VL: EIVLTQSPATLSLSPGERATLSCRASSSVSYMHWYQQKPGQAPRPWIYATSNLASGVPARFSGSGSGTSYTLTISRLEPEDFAVYYCQQWSSNRTFGGGTKVEIKR",0.554
5,"hu3-01 (antibody, human IgG1, kappa, V domains shown, IgG1-YTE, kappa) VH: EVQLVQSGAEVKKPGASVKVSCKASGYTFTDDYMNWVRQAPGQRLEWMGIISPYNGGTSYNQKFKGRVTITRDTSASTAYMELSSLRSEDTAVYYCAREDYDYDGYAMDHWGQGTTVTVSS VL: EIVLTQSPATLSLSPGERATLSCRASSSVSYMHWYQQKPGQAPRPLIYATSNLASGIPARFSGSGSGTDYTLTISRLEPEDFAVYYCQQWSSNRTFGGGTKVEIKR",0.849
6,"hu3-05 (antibody, human IgG1, kappa, V domains shown, IgG1-YTE, kappa) VH: EVQLVQSGAEVKKPGASVKVSCKASGYTFTDDYMNWVRQAPGQRLEWMGIISPYNGGTSYNQKFKGRVTLTVDKSASTAYMELSSLRSEDTAVYYCAREDYDYDGYAMDHWGQGTTVTVSS VL: EIVLTQSPATLSLSPGERATLSCRASSSVSYMHWYQQKPGQAPRPLIYATSNLASGIPARFSGSGSGTDYTLTISRLEPEDFAVYYCQQWSSNRTFGGGTKVEIKR",0.517
7,"hu3-09 (antibody, human IgG1, kappa, V domains shown, IgG1-YTE, kappa) VH: EVQLVQSGAEVKKPGASVKVSCKASGYTFTDDYMNWVKQAPGQRLEWIGIISPYNGGTSYNQKFKGRATLTVDKSASTAYMELSSLRSEDTAVYYCAREDYDYDGYAMDHWGQGTTVTVSS VL: EIVLTQSPATLSLSPGERATLSCRASSSVSYMHWYQQKPGQAPRPWIYATSNLASGVPARFSGSGSGTDYTLTISRLEPEDFAVYYCQQWSSNRTFGGGTKVEIKR",0.494

# More lines, in order of falling EC50, values ahead:
row,EC50 [nM],Binder
1,0.469,"hu3-08 (antibody, human IgG1, kappa, V domains shown, IgG1-YTE, kappa) VH: EVQLVQSGAEVKKPGASVKVSCKASGYTFTDDYMNWVKQAPGQRLEWIGIISPYNGGTSYNQKFKGRATLTVDKSASTAYMELSSLRSEDTAVYYCAREDYDYDGYAMDHWGQGTTVTVSS VL: EIVLTQSPATLSLSPGERATLSCRASSSVSYMHWYQQKPGQAPRPLIYATSNLASGIPARFSGSGSGTDYTLTISRLEPEDFAVYYCQQWSSNRTFGGGTKVEIKR"
2,0.435,"hu3-04 (antibody, human IgG1, kappa, V domains shown, IgG1-YTE, kappa) VH: EVQLVQSGAEVKKPGASVKVSCKASGYTFTDDYMNWVRQAPGQRLEWMGIISPYNGGTSYNQKFKGRVTLTVDKSASTAYMELSSLRSEDTAVYYCAREDYDYDGYAMDHWGQGTTVTVSS VL: EIVLTQSPATLSLSPGERATLSCRASSSVSYMHWYQQKPGQAPRLLIYATSNLASGIPARFSGSGSGTDFTLTISRLEPEDFAVYYCQQWSSNRTFGGGTKVEIKR"
3,0.388,"hu3-10 (antibody, human IgG1, kappa, V domains shown, IgG1-YTE, kappa) VH: EVQLVQSGAEVKKPGASVKVSCKASGYTFTDDYMNWVKQAPGQRLEWIGIISPYNGGTSYNQKFKGRATLTVDKSASTAYMELSSLRSEDTAVYYCAREDYDYDGYAMDHWGQGTTVTVSS VL: EIVLTQSPATLSLSPGERATLSCRASSSVSYMHWYQQKPGQAPRPWIYATSNLASGVPARFSGSGSGTSYTLTISRLEPEDFAVYYCQQWSSNRTFGGGTKVEIKR"
4,0.385,"hu3-07 (antibody, human IgG1, kappa, V domains shown, IgG1-YTE, kappa) VH: EVQLVQSGAEVKKPGASVKVSCKASGYTFTDDYMNWVRQAPGQRLEWMGIISPYNGGTSYNQKFKGRVTLTVDKSASTAYMELSSLRSEDTAVYYCAREDYDYDGYAMDHWGQGTTVTVSS VL: EIVLTQSPATLSLSPGERATLSCRASSSVSYMHWYQQKPGQAPRPWIYATSNLASGVPARFSGSGSGTSYTLTISRLEPEDFAVYYCQQWSSNRTFGGGTKVEIKR"
5,0.229,"hu179-16 (antibody, human IgG1, kappa, IgG1-YTE, kappa) heavy: EVQLVQSGAEVKKPGSSVKVSCKASGYAFSNYLIEWVRQAPGQGLEWIGVIDPGNGDTNYNENFKGRATLTADKSTSTAYMELSSLRSEDTAVYYCAREDNTGTAFDYWGQGTTVTVSSASTKGPSVFPLAPSSKSTSGGTAALGCLVKDYFPEPVTVSWNSGALTSGVHTFPAVLQSSGLYSLSSVVTVPSSSLGTQTYICNVNHKPSNTKVDKKVEPKSCDKTHTCPPCPAPELLGGPSVFLFPPKPKDTLYITREPEVTCVVVDVSHEDPEVKFNWYVDGVEVHNAKTKPREEQYNSTYRVVSVLTVLHQDWLNGKEYKCKVSNKALPAPIEKTISKAKGQPREPQVYTLPPSRDELTKNQVSLTCLVKGFYPSDIAVEWESNGQPENNYKTTPPVLDSDGSFFLYSKLTVDKSRWQQGNVFSCSVMHEALHNHYTQKSLSLSPGK light: DIVMTQTPLSLSVTPGQPASISCKASQSVSSDVTWYLQKPGQSPQLLIYYVSNHYTGVPDRFSGSGSGTDFTLKISRVEAEDVGVYYCQQHHRFPLTFGQGTKLEIKRTVAAPSVFIFPPSDEQLKSGTASVVCLLNNFYPREAKVQWKVDNALQSGNSQESVTEQDSKDSTYSLSSTLTLSKADYEKHKVYACEVTHQGLSSPVTKSFNRGEC"
6,0.19,"hu179-10 (antibody, human IgG1, kappa, V domains shown, IgG1-YTE, kappa) VH: EVQLVQSGAEVKKPGSSVKVSCKASGYTFSNYLIEWVRQAPGQGLEWIGVIDPGNGDTNYNENFKGRATLTADKSTSTAYIELSSLRSEDTAVYYCAREDNTGTAFDYWGQGTTVTVSS VL: SIVMTQTPLSLSVTPGQPASISCKASQSVSSDVTWYLQKPGQSPQLLIYYVSNHYTGVPDRFSGSGSGTDFTFKISRVEAEDVGVYYCQQHHRFPLTFGQGTKLEIKR"
7,0.162,"hu179-08 (antibody, human IgG1, kappa, IgG1-YTE, kappa) heavy: EVQLVQSGAEVKKPGSSVKVSCKASGYTFSNYLIEWVRQAPGQGLEWIGVIDPGNGDTNYNENFKGRATLTADKSTSTAYIELSSLRSEDTAVYYCAREDNTGTAFDYWGQGTTVTVSSASTKGPSVFPLAPSSKSTSGGTAALGCLVKDYFPEPVTVSWNSGALTSGVHTFPAVLQSSGLYSLSSVVTVPSSSLGTQTYICNVNHKPSNTKVDKKVEPKSCDKTHTCPPCPAPELLGGPSVFLFPPKPKDTLYITREPEVTCVVVDVSHEDPEVKFNWYVDGVEVHNAKTKPREEQYNSTYRVVSVLTVLHQDWLNGKEYKCKVSNKALPAPIEKTISKAKGQPREPQVYTLPPSRDELTKNQVSLTCLVKGFYPSDIAVEWESNGQPENNYKTTPPVLDSDGSFFLYSKLTVDKSRWQQGNVFSCSVMHEALHNHYTQKSLSLSPGK light: DIVMTQTPLSLSVTPGQPASISCKASQSVSSDVTWYLQKPGQSPQLLIYYVSNHYTGVPDRFSGSGSGTDFTLKISRVEAEDVGVYYCQQHHRFPLTFGQGTKLEIKRTVAAPSVFIFPPSDEQLKSGTASVVCLLNNFYPREAKVQWKVDNALQSGNSQESVTEQDSKDSTYSLSSTLTLSKADYEKHKVYACEVTHQGLSSPVTKSFNRGEC"
8,0.152,"hu3-12 (antibody, human IgG1, kappa, V domains shown, IgG1-YTE, kappa; also called hu3VH2-H110Y + hu3VL5) VH: EVQLVQSGAEVKKPGASVKVSCKASGYTFTDDYMNWVRQAPGQRLEWMGIISPYNGGTSYNQKFKGRVTLTVDKSASTAYMELSSLRSEDTAVYYCAREDYDYDGYAMDYWGQGTTVTVSS VL: EIVLTQSPATLSLSPGERATLSCRASSSVSYMHWYQQKPGQAPRPWIYATSNLASGVPARFSGSGSGTSYTLTISRLEPEDFAVYYCQQSDNVRGFGGGTKVEIKR"
9,0.137,"hu179-11 (antibody, human IgG1, kappa, V domains shown, IgG1-YTE, kappa) VH: EVQLVQSGAEVKKPGSSVKVSCKASGYTFSNYLIEWVRQAPGQGLEWIGVIDPGNGDTNYNENFKGRATLTADKSTSTAYIELSSLRSEDTAVYYCAREDNTGTAFDYWGQGTTVTVSS VL: SIVMTQTPLSLSVTPGQPASISCKASQSVSSDVTWYLQKPGQSPQLLIYYVSNHYTGVPDRFSGSGYGTDFTLKISRVEAEDVGVYYCQQHHRFPLTFGQGTKLEIKR"
